Measurements reported in patent publication US20230147657A1 (INSERM INSTITUT NATIONAL DE LA SANT ET DE LA RECHERCHE M …, published 2023).
Where two headings read alike, the source gives them in different places. Each block holds one molecule with its values, some of them ahead of it.

Experiments:
human CD45RC [1] = target: T1, human CD45RC (human, UniProt P08575 26-1306); assay: flow cytometry, EDTA whole blood, one of three healthy volunteers [1]
T1 construct: Native protein on human blood leukocytes / PBMC / T cells of healthy volunteers; also called hCD45RC
T1 sequence: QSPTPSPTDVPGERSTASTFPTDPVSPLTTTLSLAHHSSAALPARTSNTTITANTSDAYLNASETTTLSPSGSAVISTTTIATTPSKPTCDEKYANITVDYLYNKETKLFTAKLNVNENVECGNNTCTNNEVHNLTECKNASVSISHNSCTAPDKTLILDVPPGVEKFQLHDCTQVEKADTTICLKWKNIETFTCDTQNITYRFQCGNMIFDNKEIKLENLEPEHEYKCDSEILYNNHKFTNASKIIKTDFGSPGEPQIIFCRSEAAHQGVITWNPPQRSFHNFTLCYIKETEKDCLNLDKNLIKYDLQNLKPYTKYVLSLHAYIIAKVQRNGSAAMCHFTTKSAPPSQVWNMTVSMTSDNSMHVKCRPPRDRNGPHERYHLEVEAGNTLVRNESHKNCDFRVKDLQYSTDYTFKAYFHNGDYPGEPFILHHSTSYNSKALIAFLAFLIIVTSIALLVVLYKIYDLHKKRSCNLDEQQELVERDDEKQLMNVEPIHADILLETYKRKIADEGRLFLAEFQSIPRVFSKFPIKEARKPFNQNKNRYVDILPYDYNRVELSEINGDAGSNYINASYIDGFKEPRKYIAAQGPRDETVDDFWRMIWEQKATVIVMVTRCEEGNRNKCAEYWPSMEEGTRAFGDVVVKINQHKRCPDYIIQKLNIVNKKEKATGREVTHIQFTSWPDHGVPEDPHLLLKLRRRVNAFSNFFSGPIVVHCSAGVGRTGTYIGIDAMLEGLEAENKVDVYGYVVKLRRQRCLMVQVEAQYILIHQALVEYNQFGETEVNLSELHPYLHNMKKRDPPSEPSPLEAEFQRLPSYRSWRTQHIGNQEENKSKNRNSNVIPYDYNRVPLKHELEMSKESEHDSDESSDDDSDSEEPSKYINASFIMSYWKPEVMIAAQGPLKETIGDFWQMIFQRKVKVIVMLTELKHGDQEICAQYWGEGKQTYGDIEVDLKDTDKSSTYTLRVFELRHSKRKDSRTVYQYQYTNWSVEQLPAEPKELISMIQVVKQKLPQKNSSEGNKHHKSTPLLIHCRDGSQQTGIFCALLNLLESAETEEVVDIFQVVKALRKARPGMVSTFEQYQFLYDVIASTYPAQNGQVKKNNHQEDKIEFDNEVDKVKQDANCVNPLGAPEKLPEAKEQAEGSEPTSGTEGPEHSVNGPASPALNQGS

human CD45RC [2] = target: T1, human CD45RC; assay: flow cytometry, EDTA whole blood, one of three healthy volunteers [2]
human CD45RC [3] = target: T1, human CD45RC; assay: flow cytometry, EDTA whole blood, one of three healthy volunteers [3]
human CD45RC [4] = target: T1, human CD45RC; assay: flow cytometry, EDTA whole blood, one of three healthy volunteers; very few events [2]
human CD45RC [5] = target: T1, human CD45RC; assay: flow cytometry on T cells of human PBMC; biotin anti-human IgG + streptavidin PerCP-Cy5.5
human CD45RC [6] = target: T1, human CD45RC; assay: as above; remark: listed apart in the source

% of B cells in the CD45RC high gate (top) (human CD45RC [1]): 79.9%
% of B cells in the CD45RC intermediate/low gate (middle) (human CD45RC [1]): 20.1%
% of B cells in the CD45RC negative gate (bottom) (human CD45RC [1]): 0%
% of CD3+ TCRab cells in the CD45RC high gate (top) (human CD45RC [1]): 8.34%
% of CD3+ TCRab cells in the CD45RC intermediate/low gate (middle) (human CD45RC [1]): 46.2%
% of CD3+ TCRab cells in the CD45RC negative gate (bottom) (human CD45RC [1]): 45.5%
% of CD3+ TCRgd cells in the CD45RC high gate (top) (human CD45RC [1]): 1.93%
% of CD3+ TCRgd cells in the CD45RC intermediate/low gate (middle) (human CD45RC [1]): 90.6%
% of CD3+ TCRgd cells in the CD45RC negative gate (bottom) (human CD45RC [1]): 7.46%
% of CD4+ T cells in the CD45RC high gate (top) (human CD45RC [1]): 3.64%
% of CD4+ T cells in the CD45RC intermediate/low gate (middle) (human CD45RC [1]): 47.2%
% of CD4+ T cells in the CD45RC negative gate (bottom) (human CD45RC [1]): 49.2%
% of CD4+ Treg (CD25+CD127-) in the CD45RC high gate (top) (human CD45RC [1]): 3.52%
% of CD4+ Treg (CD25+CD127-) in the CD45RC intermediate/low gate (middle) (human CD45RC [1]): 19.8%
% of CD4+ Treg (CD25+CD127-) in the CD45RC negative gate (bottom) (human CD45RC [1]): 76.7%
% of CD8+ T cells in the CD45RC high gate (top) (human CD45RC [1]): 38.8%
% of CD8+ T cells in the CD45RC intermediate/low gate (middle) (human CD45RC [1]): 39.7%
% of CD8+ T cells in the CD45RC negative gate (bottom) (human CD45RC [1]): 21.5%
% of NK cells in the CD45RC high gate (top) (human CD45RC [1]): 28.6%
% of NK cells in the CD45RC intermediate/low gate (middle) (human CD45RC [1]): 70.4%
% of NK cells in the CD45RC negative gate (bottom) (human CD45RC [1]): 1%
% of T cells in the CD45RC high gate (top) (human CD45RC [1]): 7.43%
% of T cells in the CD45RC intermediate/low gate (middle) (human CD45RC [1]): 49.7%
% of T cells in the CD45RC negative gate (bottom) (human CD45RC [1]): 42.9%
% of ILC1 in the CD45RC high gate (top) (human CD45RC [2]): 9.3%
% of ILC1 in the CD45RC intermediate/low gate (middle) (human CD45RC [2]): 27.5%
% of ILC1 in the CD45RC negative gate (bottom) (human CD45RC [2]): 63.2%
% of ILC2 in the CD45RC high gate (top) (human CD45RC [2]): 45%
% of ILC2 in the CD45RC intermediate/low gate (middle) (human CD45RC [2]): 49.5%
% of ILC2 in the CD45RC negative gate (bottom) (human CD45RC [2]): 5.5%
% of MAIT cells in the CD45RC high gate (top) (human CD45RC [2]): 5.89%
% of MAIT cells in the CD45RC intermediate/low gate (middle) (human CD45RC [2]): 71%
% of MAIT cells in the CD45RC negative gate (bottom) (human CD45RC [2]): 23.2%
% of NKT cells in the CD45RC high gate (top) (human CD45RC [2]): 34.4%
% of NKT cells in the CD45RC intermediate/low gate (middle) (human CD45RC [2]): 54.2%
% of NKT cells in the CD45RC negative gate (bottom) (human CD45RC [2]): 11.4%
% of iNKT cells in the CD45RC high gate (top) (human CD45RC [2]): 24.1%
% of iNKT cells in the CD45RC intermediate/low gate (middle) (human CD45RC [2]): 61.6%
% of iNKT cells in the CD45RC negative gate (bottom) (human CD45RC [2]): 14.3%
% of monocytes CD14+ in the CD45RC high gate (top) (human CD45RC [2]): 0.43%
% of monocytes CD14+ in the CD45RC intermediate/low gate (middle) (human CD45RC [2]): 43.9%
% of monocytes CD14+ in the CD45RC negative gate (bottom) (human CD45RC [2]): 55.6%
% of monocytes CD14highCD16- in the CD45RC high gate (top) (human CD45RC [2]): 0.091%
% of monocytes CD14highCD16- in the CD45RC intermediate/low gate (middle) (human CD45RC [2]): 38.3%
% of monocytes CD14highCD16- in the CD45RC negative gate (bottom) (human CD45RC [2]): 61.6%
% of basophils in the CD45RC high gate (top) (human CD45RC [3]): 0%
% of basophils in the CD45RC intermediate/low gate (middle) (human CD45RC [3]): 7.3%
% of basophils in the CD45RC negative gate (bottom) (human CD45RC [3]): 92.7%
% of eosinophils in the CD45RC high gate (top) (human CD45RC [3]): 0.47%
% of eosinophils in the CD45RC intermediate/low gate (middle) (human CD45RC [3]): 90.5%
% of eosinophils in the CD45RC negative gate (bottom) (human CD45RC [3]): 9.08%
% of mDC in the CD45RC high gate (top) (human CD45RC [3]): 0%
% of mDC in the CD45RC intermediate/low gate (middle) (human CD45RC [3]): 14.3%
% of mDC in the CD45RC negative gate (bottom) (human CD45RC [3]): 85.7%
% of monocytes CD14intCD16+ in the CD45RC high gate (top) (human CD45RC [3]): 6.45%
% of monocytes CD14intCD16+ in the CD45RC intermediate/low gate (middle) (human CD45RC [3]): 87.7%
% of monocytes CD14intCD16+ in the CD45RC negative gate (bottom) (human CD45RC [3]): 5.87%
% of neutrophils in the CD45RC high gate (top) (human CD45RC [3]): 0.014%
% of neutrophils in the CD45RC intermediate/low gate (middle) (human CD45RC [3]): 19.3%
% of neutrophils in the CD45RC negative gate (bottom) (human CD45RC [3]): 80.7%
% of pDC in the CD45RC high gate (top) (human CD45RC [3]): 1.84%
% of pDC in the CD45RC intermediate/low gate (middle) (human CD45RC [3]): 97.9%
% of pDC in the CD45RC negative gate (bottom) (human CD45RC [3]): 0.23%
% of ILC3 in the CD45RC high gate (top) (human CD45RC [4]): 50%
% of ILC3 in the CD45RC intermediate/low gate (middle) (human CD45RC [4]): 50%
% of ILC3 in the CD45RC negative gate (bottom) (human CD45RC [4]): 0%
Molecule: MT2 (murine anti-hCD45RC antibody, commercially available)

% of T cells in the CD45RC gate at 1 µg/mL (human CD45RC [5]): 53.7%
% of T cells in the CD45RC gate at 2 µg/mL (human CD45RC [5]): 48.9%
B1: Anti-45RC Variant E (antibody, human IgG1, kappa, V domains shown)
VH: EVQLVQSGAEVKKPGESLKISCKASGYTFTNYYIGWVRQMPGKGLEWIGDIFPGGDYANSNEKFKGQVTLSADKSISTAYLQLSSLKASDTAMYYCVRRNFDYWGQGTLVTVSS
VL: EIVLTQSPDFQSVTPKEKVTITCSASSSVSYMHWFQQKPDQSPKLWIYNTSNLPSGVPSRFSGSGSGTDYTLTINSLEAEDAATYYCQQRSSYPLTFGGGTKVEIKR
notes: also called humanized ABIS-45RC variant E

% of T cells in the CD45RC gate at 1 µg/mL (human CD45RC [5]): 55.7%
% of T cells in the CD45RC gate at 2 µg/mL (human CD45RC [5]): 54.2%
B2: Anti-45RC Variant G (antibody, human IgG1, kappa, V domains shown)
VH: QVQLVESGGGLVKPGGSLRLSCAASGYTFTNYYIGWIRQAPGKGLEWIGDIFPGGDYANSNEKVKGRFTLSADTAKNSAYLQMNSLRAEDTAVYYCVRRNFDYWGQGTLVTVSS
VL: B1 VL
notes: also called humanized ABIS-45RC variant G

% of T cells in the CD45RC gate at 1 µg/mL (human CD45RC [5]): 58.8%
% of T cells in the CD45RC gate at 2 µg/mL (human CD45RC [5]): 57.2%
B3: Anti-45RC Variant F (antibody, human IgG1, kappa, V domains shown)
VH: B1 VH
VL: EIVLTQSPATLSLSPGERATLSCSASSSVSYMHWFQQKPGQAPRLWIYNTSNLPSGIPARFSGSGSGTDYTLTISSLEPEDFAVYYCQQRSSYPLTFGGGTKVEIKR
notes: also called humanized ABIS-45RC variant F

% of T cells in the CD45RC gate at 1 µg/mL (human CD45RC [6]): 29.5%
% of T cells in the CD45RC gate at 2 µg/mL (human CD45RC [6]): 13.2%
B4: Anti-45RC Variant H (antibody, human IgG1, kappa, V domains shown)
VH: B2 VH
VL: B3 VL
notes: also called humanized ABIS-45RC variant H
